Measurements from publication PMC4245140, “Towards Engineering Hormone-Binding Globulins as Drug Delivery Agents” (PLoS ONE, 2014).

What was measured:
[1] = target: prostate specific antigen (PSA) (Homo sapiens, UniProt P07288); assay: Protease cleavage assay (SDS-PAGE) with prostate specific antigen; type: biochemical; settings: incubation 2-72 hours
Source text: Reactive loop cleavage is marked by a characteristic 4 kDa change in molecular weight following release of a peptide when the R-state CBG is unfolded, such as when it is subjected to the denaturing conditions of an SDS-PAGE [14], [22]. We used this as a convenient means by which to check the engineered protein's protease specificity and, as a corollary, its site specificity.

[2] = Biolayer interferometry of CBG on immobilised cortisol (ForteBio Octet Red); type: binding; settings: CBG 0-10000 nM
Description: Biolayer interferometry was carried out on a ForteBio Octet Red apparatus (ForteBio, Menlo Park, California, USA) to determine binding affinity where fluorescence quenching experiments would not work due to mutation of Trp 371, which is the main source of intrinsic fluorescence in the binding pocket. The system uses a change in interference pattern of reflected light to detect the change in optical thickness of the sensor tip. Cortisol was immobilised on the biosensor tip surface by forming an adduct of hydrocortisone 21-hemisuccinate and a pentylamine-biotin linker through an amide bond, then allowing the biotin moiety on this cortisol adduct to bind to the streptavidin-conjugated biosensor tip. The cortisol-conjugated sensors were immersed into wells of a shaking microtitre plate containing solutions of CBG at 0, 200, 500, 1000, 2500, 5000 and 10000 nM concentrations in a 10 mM Tris-HCl, pH 7.4, 150 mM NaCl, 1 mM EDTA, 0.1 mg/ml bovine serum albumin buffer, and analysed against an internal reference.

[3] = Fluorimetric titration (intrinsic fluorescence quenching) of CBG with cortisol; type: binding; settings: for Kd / Fold change in Kd (cortisol) on reactive centre loop cleavage, S to R: physiological temperature (37°C); for Fold change in Kd (cortisol) on reactive centre loop cleavage, S to R: disulphide mutants in absence of TCEP
Description: CBG is known to bind cortisol with a one-to-one stoichiometry, [19]. Therefore, the dissociation constant, which is a measure of binding affinity, is given by the following equation: [drawing 1] (1) where [E]f is the concentration of free CBG, [L]f is the concentration of free ligand, and [E·L] is the concentration of the CBG-ligand complex.
(§1) Fluorescence spectroscopy was used to study the CBG-ligand interactions. Experiments were performed on an LS55 120V fluorescence spectrometer (Perkin Elmer), and the data were read and recorded using their proprietary FL WinLab software. For binding studies of CBG with cortisol, the excitation wavelength was set at 280 nm and the emission was detected at 350 nm, with a 315 nm cut-off filter used to prevent the excitation laser from leaching into the emission channel. For the binding studies of engineered CBG with L-T4-thyroxine-6-carboxyfluorescein, the excitation wavelength was set at 495 nm and emission was recorded at 520 nm whilst applying a 515 nm cut-off filter.
The cortisol stock solution was prepared by dissolving lyophilised cortisol (Sigma Aldrich) in 80% ethanol to make a 500 µM solution, which was then diluted with water to make solutions of 20, 40 and 80 µM, with water being used as a negative control. Aliquots of the ligand solutions were then titrated into 800 µl of a 200 nM solution of CBG made by diluting the protein stock with a buffer containing 10 mM Tris-HCl, pH 7.4, 150 mM NaCl, 1 mM EDTA, 0.1% v/v PEG 8000, and the decrease in fluorescence due to quenching was measured.
(§2) In both cases, the data were fitted using Prism 5 (GraphPad Software) to the following equation to obtain the dissociation constant, Kd: [drawing 2] (2) where ΔF is the fluorescence change, ΔFM is the maximum change in fluorescence signal, [L]t is the total concentration of ligand added and [E]t is the total protein concentration.

[4] = Fluorimetric titration of L-T4-thyroxine-6-carboxyfluorescein with engineered CBG; type: binding; settings: 25°C
Description: as §1
L-T4-thyroxine-6-carboxyfluorescein was previously synthesised and purified as a 1.09 µM solution with acetonitrile as its solvent. This was diluted into a 5 nM solution with a buffer containing 10 mM Tris-HCl, pH 7.4, 150 mM NaCl, 1 mM EDTA, 0.1% v/v PEG 8000. Aliquots of the engineered CBG were titrated into 800 µl of this solution, and increments in fluorescence signal were monitored.
as §2

[5] = intact S-state, read-out: Kd for cortisol, S (uncleaved) conformation
[6] = reactive centre loop-cleaved R-state, read-out: Kd for cortisol, R (cleaved) conformation

Chain of prostate specific antigen (PSA) (P07288 25-261): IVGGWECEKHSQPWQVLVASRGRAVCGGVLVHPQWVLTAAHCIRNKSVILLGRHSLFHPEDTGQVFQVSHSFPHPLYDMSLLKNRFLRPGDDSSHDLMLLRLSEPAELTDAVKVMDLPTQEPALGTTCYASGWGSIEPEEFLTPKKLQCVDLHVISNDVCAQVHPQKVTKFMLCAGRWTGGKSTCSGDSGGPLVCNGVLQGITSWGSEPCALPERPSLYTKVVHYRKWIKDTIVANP

| Molecule | Kd [3, 5] | Fold change in Kd (cortisol) on reactive centre loop cleavage, S to R [3] | Kd [3, 6] | other results |
| --- | --- | --- | --- | --- |
| SALLSSDI: CBG variant with reactive centre loop segment STGVTLNL mutated to SALLSSDI (PSA substrate) (EEGVDTAGSALLSSDITSKPII) | – | – | – | Cleavage of reactive centre loop by PSA [1]: cleavage of their respective reactive centre loops |
| CBG-Trp371Ala: Human CBG with binding pocket Trp 371 mutated to alanine (protein, UniProt P08185 23-405, looked up, variant W371A) Corticosteroid-binding …: MDPNAAYVNMSNHHRGLASANVDFAFSLYKHLVALSPKKNIFISPVSISMALAMLSLGTCGHTRAQLLQGLGFNLTERSETEIHQGFQHLHQLFAKSDTSLEMTMGNALFLDGSLELLESFSADIKHYYESEVLAMNFQDWATASRQINSYVKNKTQGKIVDLFSGLDSPAILVLVNYIFFKGTWTQPFDLASTREENFYVDETTVVKVPMMLQSSTISYLHDSELPCQLVQMNYVGNGTVFFILPDKGKMNTVIAALSRDTINRWSAGLTSSQVDLYIPKVTISGVYDLGDVLEEMGIADLFTNQANFSRITQDAQLKSSKVVHKAVLQLNEEGVDTAGSTGVTLNLTSKPIILRFNQPFIIMIFDHFTASSLFLARVMNPV | – | – | – | Affinity for cortisol by biolayer interferometry [2]: no detectable affinity for cortisol |
| P1-Arg + S100C-V236C-V336L: Human CBG combining S100C-V236C disulphide and V336L on T349R background (protein, UniProt P08185 23-405, looked up, variant S100C V236C V336L T349R) Corticosteroid-binding …: MDPNAAYVNMSNHHRGLASANVDFAFSLYKHLVALSPKKNIFISPVSISMALAMLSLGTCGHTRAQLLQGLGFNLTERSETEIHQGFQHLHQLFAKSDTCLEMTMGNALFLDGSLELLESFSADIKHYYESEVLAMNFQDWATASRQINSYVKNKTQGKIVDLFSGLDSPAILVLVNYIFFKGTWTQPFDLASTREENFYVDETTVVKVPMMLQSSTISYLHDSELPCQLVQMNYCGNGTVFFILPDKGKMNTVIAALSRDTINRWSAGLTSSQVDLYIPKVTISGVYDLGDVLEEMGIADLFTNQANFSRITQDAQLKSSKVVHKAVLQLNEEGLDTAGSTGVTLNLRSKPIILRFNQPFIIMIFDHFTWSSLFLARVMNPV | 252 ± 17 nM | 6.4 fold | 1600 ± 320 nM | – |
| P1-Arg + S100C-V236C: Human CBG with Ser100Cys/Val236Cys disulphide mutations on T349R background (PDB 4C41, cleaved) (protein, UniProt P08185 23-405, looked up, variant S100C V236C T349R) Corticosteroid-binding …: MDPNAAYVNMSNHHRGLASANVDFAFSLYKHLVALSPKKNIFISPVSISMALAMLSLGTCGHTRAQLLQGLGFNLTERSETEIHQGFQHLHQLFAKSDTCLEMTMGNALFLDGSLELLESFSADIKHYYESEVLAMNFQDWATASRQINSYVKNKTQGKIVDLFSGLDSPAILVLVNYIFFKGTWTQPFDLASTREENFYVDETTVVKVPMMLQSSTISYLHDSELPCQLVQMNYCGNGTVFFILPDKGKMNTVIAALSRDTINRWSAGLTSSQVDLYIPKVTISGVYDLGDVLEEMGIADLFTNQANFSRITQDAQLKSSKVVHKAVLQLNEEGVDTAGSTGVTLNLRSKPIILRFNQPFIIMIFDHFTWSSLFLARVMNPV | 278 ± 64 nM | 6.5 fold | 1800 ± 49 nM | Change in cortisol binding affinity after reactive loop cleavage in presence of TCEP ([3]; 37°C, reducing agent TCEP present): very similar to that of wild-type CBG |
| P1-Arg + V336L: Human CBG with P14 Val336Leu on T349R (P1 Arg) background, thrombin-cleavable (protein, UniProt P08185 23-405, looked up, variant V336L T349R) Corticosteroid-binding …: MDPNAAYVNMSNHHRGLASANVDFAFSLYKHLVALSPKKNIFISPVSISMALAMLSLGTCGHTRAQLLQGLGFNLTERSETEIHQGFQHLHQLFAKSDTSLEMTMGNALFLDGSLELLESFSADIKHYYESEVLAMNFQDWATASRQINSYVKNKTQGKIVDLFSGLDSPAILVLVNYIFFKGTWTQPFDLASTREENFYVDETTVVKVPMMLQSSTISYLHDSELPCQLVQMNYVGNGTVFFILPDKGKMNTVIAALSRDTINRWSAGLTSSQVDLYIPKVTISGVYDLGDVLEEMGIADLFTNQANFSRITQDAQLKSSKVVHKAVLQLNEEGLDTAGSTGVTLNLRSKPIILRFNQPFIIMIFDHFTWSSLFLARVMNPV | 295 ± 44 nM | 8.2 fold | 2420 ± 200 nM | – |
| CBG-Trp371Arg: Human CBG with binding pocket Trp 371 mutated to arginine (protein, UniProt P08185 23-405, looked up, variant W371R) Corticosteroid-binding …: MDPNAAYVNMSNHHRGLASANVDFAFSLYKHLVALSPKKNIFISPVSISMALAMLSLGTCGHTRAQLLQGLGFNLTERSETEIHQGFQHLHQLFAKSDTSLEMTMGNALFLDGSLELLESFSADIKHYYESEVLAMNFQDWATASRQINSYVKNKTQGKIVDLFSGLDSPAILVLVNYIFFKGTWTQPFDLASTREENFYVDETTVVKVPMMLQSSTISYLHDSELPCQLVQMNYVGNGTVFFILPDKGKMNTVIAALSRDTINRWSAGLTSSQVDLYIPKVTISGVYDLGDVLEEMGIADLFTNQANFSRITQDAQLKSSKVVHKAVLQLNEEGVDTAGSTGVTLNLTSKPIILRFNQPFIIMIFDHFTRSSLFLARVMNPV | – | – | – | Kd [4]: 840 nM; Affinity for cortisol by biolayer interferometry [2]: no measurable affinity for cortisol |
| P1-Arg + V336I: Human CBG with P14 Val336Ile on T349R (P1 Arg) background, thrombin-cleavable (protein, UniProt P08185 23-405, looked up, variant V336I T349R) Corticosteroid-binding …: MDPNAAYVNMSNHHRGLASANVDFAFSLYKHLVALSPKKNIFISPVSISMALAMLSLGTCGHTRAQLLQGLGFNLTERSETEIHQGFQHLHQLFAKSDTSLEMTMGNALFLDGSLELLESFSADIKHYYESEVLAMNFQDWATASRQINSYVKNKTQGKIVDLFSGLDSPAILVLVNYIFFKGTWTQPFDLASTREENFYVDETTVVKVPMMLQSSTISYLHDSELPCQLVQMNYVGNGTVFFILPDKGKMNTVIAALSRDTINRWSAGLTSSQVDLYIPKVTISGVYDLGDVLEEMGIADLFTNQANFSRITQDAQLKSSKVVHKAVLQLNEEGIDTAGSTGVTLNLRSKPIILRFNQPFIIMIFDHFTWSSLFLARVMNPV | 326 ± 46 nM | 10 fold | 3420 ± 440 nM | – |
| P1-Arg + S100C-V236C-V336I: Human CBG combining S100C-V236C disulphide and V336I on T349R background (protein, UniProt P08185 23-405, looked up, variant S100C V236C V336I T349R) Corticosteroid-binding …: MDPNAAYVNMSNHHRGLASANVDFAFSLYKHLVALSPKKNIFISPVSISMALAMLSLGTCGHTRAQLLQGLGFNLTERSETEIHQGFQHLHQLFAKSDTCLEMTMGNALFLDGSLELLESFSADIKHYYESEVLAMNFQDWATASRQINSYVKNKTQGKIVDLFSGLDSPAILVLVNYIFFKGTWTQPFDLASTREENFYVDETTVVKVPMMLQSSTISYLHDSELPCQLVQMNYCGNGTVFFILPDKGKMNTVIAALSRDTINRWSAGLTSSQVDLYIPKVTISGVYDLGDVLEEMGIADLFTNQANFSRITQDAQLKSSKVVHKAVLQLNEEGIDTAGSTGVTLNLRSKPIILRFNQPFIIMIFDHFTWSSLFLARVMNPV | 297 ± 40 nM | 7.6 fold | 2260 ± 320 nM | – |
| TBG: Thyroxine binding globulin, hormone-carrying serpin, comparator (protein, UniProt P05543 21-415, looked up) Thyroxine-binding globulin: ASPEGKVTACHSSQPNATLYKMSSINADFAFNLYRRFTVETPDKNIFFSPVSISAALVMLSFGACCSTQTEIVETLGFNLTDTPMVEIQHGFQHLICSLNFPKKELELQIGNALFIGKHLKPLAKFLNDVKTLYETEVFSTDFSNISAAKQEINSHVEMQTKGKVVGLIQDLKPNTIMVLVNYIHFKAQWANPFDPSKTEDSSSFLIDKTTTVQVPMMHQMEQYYHLVDMELNCTVLQMDYSKNALALFVLPKEGQMESVEAAMSSKTLKKWNRLLQKGWVDLFVPKFSISATYDLGATLLKMGIQHAYSENADFSGLTEDNGLKLSNAAHKAVLHIGEKGTEAAAVPEVELSDQPENTFLHPIIQIDRSFMLLILERSTRSILFLGKVVNPTEA | – | – | – | Kd [4]: 0.73 nM |
